Assay [1] addresses human CD47, endogenous cell surface form (Raji, CCRF-CEM cells) (human) (UniProt Q08722). The assay is described as follows: cell-based or functional assay.
Assay [2] has the same target. Description: flow cytometry on CCRF-CEM cells, FITC anti-mouse IgG, MFI-FL1. (A flow cytometer gives signals particle by particle.)
The target is the same in assay [3]. The assay is described as follows: apparent KD, flow cytometry on Raji cells, non-linear fit of median fluorescence.
Assay [4] has the same target. Description: flow cytometry blocking: SIRPa-Fc binding to CCRF-CEM cells with rising antibody.
Assay [5] concerns the target T1, human CD47, endogenous cell surface form (Raji, CCRF-CEM cells) (human, UniProt Q08722 19-323).
T1 construct: the cells carry endogenous CD47; also called cell surface CD47
Description: flow cytometry on CCRF-CEM cells, FITC anti-mouse IgG, MFI-FL1.
Description: Bound CD47 antibodies were detected using a FITC conjugated anti-mouse IgG secondary antibody (Jackson ImmunoResearch).

Assay [6] deals with T1, human CD47, endogenous cell surface …. The assay is described as follows: apparent KD, flow cytometry on Raji cells, non-linear fit of median fluorescence.
Assay [7] shares this target. The assay is described as follows: flow cytometry blocking: SIRPa-Fc binding to CCRF-CEM cells with rising antibody.
The target in assay [8] is T2, recombinant His-tagged-CD47-IgV (human, UniProt Q08722 19-134).
T2 construct: not shown: His tag
Description: blocking ELISA: SIRPa-Fc binding to immobilised His-CD47-IgV with rising antibody.

Assay [9] deals with T1, human CD47, endogenous cell surface …. The assay is described as follows: flow cytometry on Raji cells (CD20-gated), signal normalised to the maximum of the antibody on that cell population.
Description: (§1) Cynomolgus peripheral blood mononuclear cells (PBMCs) were isolated from cynomolgus whole blood by ficoll-paque gradient centrifugation. […] Cells were analyzed by flow cytometry, first gated on live cells by FSC and SSC, then on cells positive for FL4 (CD20 positive), and lastly the median FL1 (CD47 positive) was measured. The data were normalized by dividing the signal at each concentration by the maximum signal for each antibody on each cell population.
Assay [10] addresses T3, cynomolgus monkey CD47 on cynomolgus B-cells (cynomolgus monkey, UniProt A0A5F8AK49 19-323 (rhesus entry)).
T3 construct: whole, on cells; also called cyno CD47
The assay is described as follows: flow cytometry on cynomolgus B-cells (CD20-gated PBMC), signal normalised to the maximum of the antibody on that cell population.
Description: as §1

B1: B6H12 CD47 antibody (antibody, from another filing, V domains shown)
VH: EVKLVESGGDLVKPGGSLKLSCAASGFTFSGYGMSWVRQTPDKRLEWVATITSGGTYTYYPDSVKGRFTISRDNAKNTLYLQIDSLKSEDTAIYFCARSLAGNAMDYWGQGTSVTVSS
VL: DIVMTQSPATLSVTPGDRVSLSCRASQTISDYLHWYQQKSHESPRLLIKFASQSISGIPSRFSGSGSGSDFTLSINSVEPEDVGVYYCQNGHGFPRTFGGGTKLEIK
Turning to B1, in assay [1], the phagocytosis of CFSE-labeled CCRF-CEM tumor cells by human monocyte derived macrophages is above 66.7 pM. In assay [2], the EC50 (read off the curve) is 3 nM. In addition, the Kd in assay [3] worked out at 3.79 nM. The IC50 (read off the curve) in assay [4] was 9 nM.

B2: murine CD47 antibody 2A1 (antibody, mouse IgG1, V domains shown)
VH: EVQLQQSGAELVRSGASVKLSCTASGFNIKDYYLHWVKQRPEQGLEWIGWIDPDNGDTEFAPKFQGKATMTADTSSNTAYLQLSSLTSEDTAVYYCNAAYGSSSYPMDYWGQGTSVTV
VL: DIKMTQSPSSLYASLGERVTITCKASQDIHRYLSWFQQKPGKSPKILIYRANRLVDGVPSRFSGSGSGQDYSLTISSLEYEDMGIYYCLQYDEFPYTFGGGTKLEMK
notes: Hybridoma-derived mouse IgG1; also called 2A1-mIgG1; 2A1mIgG1
In the case of B2, the “EC50 (read off the curve)” value in [5], in [9] and in assay [10] was around 0.4 nM in each case. For the same molecule, in assay [6], the Kd was 0.0936 nM. In addition, the figures for the “IC50 (read off the curve)” value in [7] and in [8] were around 0.7 nM and around 5 nM, respectively.

What is called EC50 (read off the curve) is the concentration needed to bring the measured effect to its halfway point.
